Biological target: T1, human CD48 (full-length hCD48), on cells (human, UniProt P09326 27-220)
T1 construct: also called membrane-associated CD48
T1 sequence: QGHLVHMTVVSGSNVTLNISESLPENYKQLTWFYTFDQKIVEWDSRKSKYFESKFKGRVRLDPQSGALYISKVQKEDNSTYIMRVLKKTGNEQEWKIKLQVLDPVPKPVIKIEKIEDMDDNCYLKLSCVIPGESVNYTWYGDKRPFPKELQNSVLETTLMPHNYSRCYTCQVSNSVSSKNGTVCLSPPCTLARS
Assay: not told at this place (summary sentence in the description)
Experimental: Equilibrium binding assays were performed on transiently expressed hCD48. Full-length hCD48 in the expression vector pDC409 was transfected into CV-1/EBNA cells and these cells were diluted 1:20 into a carrier cell (Daudi). Serial dilutions of NAIL-Fc in binding media (RPMI 1640), 2.5% bovine serum albumin, […] HEPES, 0.02% Na azide [pH 7.2]) were incubated with cells (combination of carrier cells and transiently expressed cells 2.5×10⁶ combined cells/well) for 2 hours at 4° C. in a total of […] in a 96-well microtiter plate. The plate was centrifuged and the supernatants were aspirated. One-hundred fifty microliters of ¹²⁵I goat anti-human IgG Fcγ (Jackson Immunoresearch Laboratories, Inc., West Grove, Pa.; cat #109-006-098) was added to each well and cells were incubated another 1 hour at 4° C. Free and bound probes were separated by the pthalate oil separation method, essentially as described (Dower et al., J.Immunol. 132:751-758, 1984). Goat anti-human IgG Fcγ was labeled with […] using solid phase chloramine T analog (Iodogen; Pierce Chemical, Rockford, Ill.) to a specific radioactivity of 2.11×10¹⁵ cpm/mmol. […] No binding of C1.7-Fc or CD48-Fc proteins could be detected on nontransfected cells.

Kd: ~0.1 nM
B1: NAIL-Fc polypeptide (soluble NAIL-Fc fusion protein) (Fc fusion)
chain: CQGSADHVVSISGVPLQLQPNSIQTKVDSIAWKKLLPSQNGFHHILKWENGSLPSNTSNDRFSFIVKNLSLLIKAAQQQDSGLYCLEVTSISGKVQTATFQVFVFDKVEKPRLQGQGKILDRGRCQVALSCLVSRDGNVSYAWYRGSKLIQTAGNLTYLDEEVDINGTHTYTCNVSNPVSWESHTLNLTQDCQNAHQEFRRSCDKTHTCPPCPAPEAEGAPSVFLFPPKPKDTLMISRTPEVTCVVVDVSHEDPEVKFNWYVDGVEVHNAKTKPREEQYNSTYRVVSVLTVLHQDWLNGKEYKCKVSNKALPAPIEKTISKAKGQPREPQVYTLPPSREEMTKNQVSLTCLVKGFYPSDIAVEWESNGQPENNYKTTPPVLDSDGSFFLYSKLTVDKSRWQQGNVFSCSVMHEALHNHYTQKSLSLSPGK
notes: also called C1.7-Fc; soluble NAIL polypeptide

From patent publication US20080081043A1 (published 2008)
